Results published in the DeepSol protein solubility set.

Test: soluble on expression in E. coli; label from the status in PepcDB or PDB records
In the case of “GSCSSKPANTAKGEKGSDKTGKDLELKLSFQEGIAPGESLNEKLDFMEKLGVVGFEPGGGGLAGRVNEIKQALNGRNIKVSAICAGFKGFILSTDPAIRKECMDTMKEIIAAAGELGSTGVIIVPAFNGQVPALPHTMETRDFLCEQFNEMGTFAAQHGTSVIFEPLNRKECFYLRQVADAASLCRDINNPGVRCMGDFWHMTWEETSDMGAFISGGEYLQHVHVASRKRRSMPGEDGDADNYINGFKGLKMIGYNNYVSFECGCQGDRNVVVPAAVKLLREQWEQA”, the “soluble on expression in E. coli” value is reported as “soluble”.
For “GPGSMMILPHAEEVELRRGSSPATITSTTGRVNRVAVDTSSEENQEAVSQDRLEGRDDAGKSPTTSASPGTSSKKDRFQATSAQVKGALSTPRRAVYEFHDMFGFLVTEEEKAAEDYERRNNGYSRAYLDKWEYMMTHWANVRQDTLKRYCRRGVPQPKRCAVWQHLLQSWGMKDRFPGVYMRLHSQPLDSKDLADVIARDLDRTFPTNRLFSVKSGQGQQILRRLLHAYANYNPGVGYCQGMGFLAATLILQVEEEEDAFWAFVAVMENAKYNMKAVFAPSFPQLQCAFYVFEALMRQKMPKLYAHLHDRHPIPPSFYAVHWFMTIFTYHFNFGLVSRIWDMFFCEGWKPVYRIALALLKIEERRLLSLNTDTELLLVLKGIQESKRPVELLKTALKIRFKSAYMNQLMAEFNAQPS”, the “soluble on expression in E. coli” value was “not soluble”.
For “MSLSSKRDIEANTDLNSITYIPTFPEPFERDNSHTTASFVSIQIRLLVASVTEENFLDTEHQIYYLLQRGSFSVYISYWKLLIQLFVNEFEAQQQKRDLNLPFRFDFSNLVHRLLYNLAQELITRTPDTIEKVKELALPLSGKYPIRPLFLSFLNKDNESDSAIIEALNPEVHPIFTTLKDLHRTNMSVSNITQNLFAVENKPNFLTMLSEFLKPLQGETLNDWIALILSEILAPGSQTSNQPSQPWIVQVPNVDVREVIEATEMGTKVNGIIKSLGTNNVNWNRVFNLMSTKFFLNKPVNATLSSLNYLFCILNSGPLVDQFFACDWSLYFKLRLSFLMYQWNYNSECLDLSSLPNIKKINKSIPLTKKSQLSLISVGKLNIELFLSRDEISKNPLFSSFHASFSEAYNNVPEYLAAVLISESKYFSLLVDNKSIIDELLISLVIKTYENNVIAFKELLKLVSKQKVIEVSRGIIASQNAQTINLVQALHDLGILDEVFEKLPIRDSLKLSPTAMHLGYLKFSEYIERNITLKTFVPTLDFIEAQTNIDELDPALKSVKLLNLHSLHSLIYRTANLKLSADERVALNNVIFKALISFPRLINYGYGHDDAIVANGDHAPIPQDVEKKMQTYLQKMYNKEMAIKDIVDILRKLRDSDDSNDQDIFCCIIHAVIAETTFFKEYPLEALATTSVLFGSMILFDLLRGFVLDVAFQIIYTFASESPDSKMFKFAVQALYAFRMRLNEYSPFCKRLLDEIPGLQTQPQIQQILTESAANPNVSEGHHHHHH”, the “soluble on expression in E. coli” value was “soluble”.
For “MGHHHHHHSHMLSHNTMMKQRKQQATAIMKEVHGNDVDGMDLGKKVSIPRDIMLEELSHLSNRGARLFKMRQRRSDKYTFENFQYQSRAQINHSIAMQNGKVDGSNLEGGSQQAPLTPPNTPDPRSPPNPDNIAPGYSGPLKEIPPEKFNTTAVPKYYQSPWEQAISNDPELLEALYPKLFKPEGKAELPDYRSFTRVATPFGGFEKASRMVKFKVPDFELLLLTDPRFMSFVNPLSGRRSFNRTPKGWISENIPIVITTEPTDDTTVPESEDL”, the “soluble on expression in E. coli” value was “not soluble”.
With “MGSDKIHHHHHHMRVDVMVIGAGAAGMAAALKAKEEGAEVLLVERDERTGGILNQCIHNGFGLHYFRQELTGPEYAERFQEKMEKMGIRALTNAYVKRVEDRRVILVTEQGIEEVEVGALVYATGARERPFGSLMIPGDRPSGIFTAGVAQRLINIENRLPGKRALILGSGDIGLIMARRLTLEGMEVVGVVERLPYAGGLLRNVIQCLEDYNIPLYLSSTVVEVRGRERLEEVVVAKVDEQFRPIPRTERVFKVDTLVLSVGLIPQVELIENLVVKNPTSRGVGVSNIGQTSRDWIFSAGNCTVIFDLVDYVSYEGETAGRYAAKFVKGEIPREKIPVRPGKNVMVVHPIWYTPAEPLTLYLRVKKPMEKGRLVVGRFAREFEDLVPSEMLRVKISDRDLEGLDEIVVSVEEVN” the “soluble on expression in E. coli” value was “not soluble”.
In the case of “SLSQIKVLIVDDARFIRDHVTRIVKEHFPEYQIDAAEDGDDGQKAMSKVDYDLILCDWEMPGKSGLELLTWARSQPHYADIPFVMVTEG”, the “soluble on expression in E. coli” value is reported as “soluble”.
In the case of “MTDHNLLPEPKKILWRVSELNRNARVILEQTFPLLWVSGEISNLKRYPSGHWYFSLKDDSAQVRCVMFRHKNLYLDWIPQEGMQVEAQALVTLYEARGEFQLTVEQLRRAGLGALFEAFERLKARLQQEGLFSPEYKQPLPRFPRQIGIITSPNTAALRDVLTTLQLRLPSIPVVIYPAPVQGEGSAAAITTALHTAAVRGECDVLILCRGGGSIEDLWAFNEEIVARAIAACPIPIVTGIGHETDFTIADFVADARAPTPTGAAQLASPDRQAILHRLQYWLHRLQQTMERHIERRMQATDLLAHRLIHPGERIRHQQMHLLQLRGRLQNAWNRQVEIRTWRIEETGRRIHSAKPDIQAGIRHQQELAARLQRAMAHRLENLQFKLRQQQQHLIHLDPKAVLARGYSIAYTARGDILHDSRQTRAGDNVRLVFASGWAKADITETGE”, the “soluble on expression in E. coli” value is reported as “not soluble”.
With “MGSDKIHHHHHHMDEQIKKAIEAHALAEYPRECCGLVVKTESGEIYVRCRNLAAVPTDQFALASEDYAAAEDMGEIVALVHSHPGASAQPSEADRAMCERSGIEKWVIVSLGVQADGSIGIDDWCEFEPAGYVTRLIGRQFVHGVHDCYAIVRDWYLAERGVLLPDFEREDDWWNDGRSNLYLNHYQDAGFLDVGRGVTLQVGDVLLMQIRSKNDVPNHAGVYLGDGQFLHHMHGRLSARAVWGGMWADCCTTVLRYAGGRK” the “soluble on expression in E. coli” value was “not soluble”.
With “MSRGFALLGWLNPAQRQAVTAPCGHLCINAAAGTGKTTTVAARILWLQLVQDVPPEAILAVTFSRAARAHLLDRVEAFTRVLGAGGAVPTFTLHGLAYRILRIAIGAGETWLRPGFGVISVGRDRINPLLQEHAADLLGDLSDPWDLPTRVEQYSRALDAVRQGCADIEEGLPLEPDDLPDGVLYVPARIETPNLRKVWRRYNRMLRARNYLDYPGMVTEAILALYREGKTLQRARANLEYIIVDEYQDTSRAQEELIQLLVGERTSVTVVGDSDQAIYTFNGADIGNILHFAERILETGSALPVLEPVHLVENYRSSACILDAANRVLDRIHGPGRKQLVPYPGTVDEPVESYRRRNLEVVRVHAGSLDQAAFWAASEIARLVTEEGIEPSDIAVLVRKDTEHAPQGRAVRLALERLGIRAEEQERDPIRSSHVYEVVRDLCGDPDYYGEDIGDMIERIAAGEFRDALGDVTPDEATALLREAQAAGAEFAGEVVDFVFEQGAPDATPASLEGVQVRTIHSAKGLEFRVVFLMYLSDREFPHGAHPDVAEERRLYYVGLTRAQERLYVLGQPGVRNEDFFGAIDGSGVVTVHVEPWRDRSPSSEEAVDDETLRLIQEARRRQHDMFLRRP” the “soluble on expression in E. coli” value was “soluble”.
For “VFCAGHGVYWVAYDAGNLIKNGENTVEILTSTGEPGKKMDGRIYGTVLAAACENPKAPMVSYQLLTGNINLHGEGWSENIKEVNDRAEVNFSAGQALNNIDSANLSVVYLTGSKGLPDYIEFNGEIPGVPPQYLVEKCGENVRDIANEVSFDSSGDKGAASSYFDMEHIDVLNYLKADNSAVFVRGFDINGDGKIDDQEGEDYLHPVLAALVLTSKNTESVFPDLYPEIRVSEEELIDGKPVEISLTINNPGGICEENCTAVFLVDGNEISRVPIQMGAAGIHRSGILWSGIKGEHRLELFLD”, the “soluble on expression in E. coli” value was “not soluble”.
In the case of “MKIAIIGAGIGGLTAGALLLEKGHDVSIFERQSNISEVGAGIGIGDNVIKKLGKHDLAKGIKNAGQNLSAMNVLDDKGNILSAVKLKEATLNVTLARQTLIELIQSYVNPQCIYTDHDVIKVENVEQHTMVHFSNHASQSFDLCIGSDGLHSVVRQAIHQNAKILYQGYTCFRGLVDDADLHNIDIASEYWGKRGRVGIVPLINNQAYWFITINASEKDPKYQTFEKPHLQAYFNNYPEPVRQILDKQSETGIQKHDLYDMKPLKSFVNQRILLLGDAAHATTPNMGQGAGQAMEDAIVLVNCLAEYDIEKALKRYDKLRVKHTAKVIKRSRKIGKIAQKDNKLVISLRNGVMKRTPNRLLSGQTKFLYKAKHKLEHHHHHH”, the “soluble on expression in E. coli” value is reported as “not soluble”.
With “MLNTIVLIRTDNFDKALTALADLVRYGGMKIRGTPRIIPPALSDWAFEQIVGEKPKKKVKAHVVAQIDLPASKAIGRIRDIHPPAHIIVIPVGSPVHKELLRLWGTFKELKGFHPPKEIKRLENIENEEDLELEHHHHHH” the “soluble on expression in E. coli” value was “not soluble”.
For “MGSDKIHHHHHHMLKIELLESFIAVAECGNMSKAADKVCRTQSTLSLQIKKLEEVVGQSLLLRDNKGTTLTESGSTLLNYAYKMMQLNSQAIHDLKDCQNREIIRLGVPTDYIKFYLNSCLLEFIREFTCIELVIDTDVSGNLFKRLQQGEFDLIVATHWQAPVNGELLFSRRFHWAAAKNGQAHKRSTVPMALYPENCPIRAQVFANHQLSMRPINVLLSTPSPQALCMAVENDLAIAPIAEFRTNEHMQILDPHEHGLPPLPIFNESLYLNPETQTEATMQLITLIKANVEHLSDTID”, the “soluble on expression in E. coli” value was “not soluble”.
In the case of “MVADIELDAAQSIAAVLFDKDGTLLGYDASWGPVNRELASIAAKGDAALADRLLAACGMDPVTGHVVPDSLLAAGNTAEIAAGLVAAGSSCDVVELTQRLDRLFTEAADKSVPVTDLKAFFARLKARGYKLGIASSDNENSIRQTAIRFGFEEDIDFVAGYDSGYGTKPQPGMVLGFCEAIGFPPERVAVVGDNNHDLHMAKNAGAGLRIAVLTGTGSRESLGADAHYCFDDITGLEALLPERAV”, the “soluble on expression in E. coli” value is reported as “not soluble”.
With “MSLNSEAFTGNAAQRFLFSSSDGTKIVSIADRGHLRWCHSTSTTYKSLDFDLQFEGKVEGAVSSTTADYVCIYNRDELHVLEVPWMYSGEENGLKHLCHIYSHKFDENHSIKQVLFHPKSYLDSTILVLTNDDSIFMINTDDNRSDKNMINLNSKNSALGLYDRINDIQKIIFSQDGLSLLILSAEEGCDIFTIYPCLPRRWDISLHEVDTLFAKSLLLYNNMNVNTTPQEKRNIVKQLNFMEKIRGQKTAFRNDKKPLILEDAYLNAQPQGPFSMTPYPNELYDFMATDINIIQITQNISLLAIAFSNGTVLLFLSDLEPIMSWDISRFPGSNSLALLEQIKLEITDNAKFLSIPGTYGKFVVTDNVKSNFFVNTCDWSTILAQIIDDSDIKLLANLKVKSNIENLQQLATTFKSIIYWKNENISCNYIISDKKIEELDEGHHHHHH” the “soluble on expression in E. coli” value was “soluble”.
For “MEDQLTIFIISDSLGETAKAIAKACLSQFPGHDDWHFQRFSYINSQERLEQVFEEASQKTVFMMFSLVDVALASYAQKRCESEHYAYVDLLTNVIQGISRISGIDPLGEPGILRRLDNDYFKRVESIEFAVKYDDGRDPRGILQADLVIIGISRTSKTPLSMFLADKNIKVINIPLVPEVPVPKELRMIDSRRIIGLTNSVDHLNQVRKVRLKSLGLSSTANYASLERILEETRYAEEVMKNLGCPIINVSDKAIEETATIILEILKTNGQVAKNLLEHHHHHH”, the “soluble on expression in E. coli” value was “not soluble”.
In the case of “MQDDPSTSPLTHSATLRRLLYEALDALGLDPTRVYRSVYRRIPLPPPTLGGRLVHDNAPLFWTELAAVTGDADIGLHLGEAMKPRLLDVVGYLLLSARDLEEALRSFVRFQHILSGGFAARLEVEGETARLILDINYLGYASLRQQIECLMLLFLKLLALISDDEFVAERIEFRHRAPPRLGEHRRLFGRLPLFSRPHDALVFSAALLRRPSRNANPDMHDVLTRHAEEQSRELSENRLLNRVRYLIELRLGEGYGLRQCAAELGLGSGALQRALAAGGASFRQVRDEVRRQRASEMLLAGRAIREVAKACGFAELSPFYRAFRRWHAAPPEQYRARLAKREEGYSTSGT”, the “soluble on expression in E. coli” value is reported as “not soluble”.
